According to patent US20180271960A1, “METHOD TO TREAT CANCER USING ARGININE DELPETOR AND ORNITHINE DECARBOXYLASE (ODC) INHIBITOR” (Bio-Cancer Treatment International Ltd., priority 2015, published 2018):
“Also recorded” adds a separate entry of the source.

Experiments:
[1] = test system: SU-DHL-6 B cell lymphoma xenograft; test: SU-DHL-6 B cell lymphoma xenograft model; format: in vivo, mouse; conditions: SU-DHL-6 xenograft; PEG-BCT-100 20 mg/kg IV twice a week; DFMO 2% w/v in drinking water
Procedure: (§1) In one example embodiment, the SU-DHL-6 human lymphoma cells are maintained in vitro as a suspension culture in RPMI1640 medium supplemented with 10% heat inactivated fetal bovine serum at 37° C. in an atmosphere of 5% CO2 in air. The tumour cells are routinely sub-cultured twice weekly. The cells growing in an exponential growth phase are harvested and counted for tumour inoculation.
One day before tumour inoculation, all mice are sub-lethally irradiated with 60Co (200 rad). Each mouse is inoculated subcutaneously at the right flank region with SU-DHL-6 tumour cells (5×10^6) in 0.1 ml of PBS/Matrigel (1:1) for tumour development. The treatments start when the mean tumour size reaches 125 mm^3. The date of tumour cell inoculation is denoted as day 0.
(§2) Four groups of animals, with eight animals in each group, are tested. Control group (negative control) receives physiological saline, and the three treatment groups respectively receive 20 mg/kg of PEG-BCT-100 alone, 2% w/v DFMO in drinking water, and a combination of 20 mg/kg of PEG-BCT-100 and 2% w/v DFMO. PEG-BCT-100 is administered intravenously, twice a week, until euthanization while DFMO is supplied in drinking water at 2% w/v.

[2] = test system: MIA-PaCa-2 pancreatic cancer xenograft; test: MIA-PaCa-2 pancreatic cancer xenograft model; format: in vivo, mouse; conditions: MIA-PaCa-2 xenograft; PEG-BCT-100 20 mg/kg IV twice a week; DFMO 2% w/v in drinking water
Procedure: as §1, with “MIA-PaCa-2 tumour” for “SU-DHL-6 human lymphoma”, “vitro” for “vitro as a suspension”, “EMEM” for “RPMI1640”
Each mouse is inoculated subcutaneously at the right flank region with MIA-PaCa-2 tumour cells (5×10^6) in 0.1 ml of PBS (1:1 Matrigel) for tumour development. The treatments start when the mean tumour size reaches 124 mm^3. The date of tumour cell inoculation was denoted as day 0.
as §2, with “Four treatment” for “Four”, “and” for “and a”

[3] = test system: H358 lung adenocarcinoma cell line; test: MTT assay, growth inhibition of H358 cell line; format: cell-based; conditions: 48 h and 72 h at 10 ng/μl
Procedure: (§3) The inhibition ratio (IR) and the half maximal inhibitory concentration (IC50) values are determined by a MTT assay.

[4] = test system: lung adenocarcinoma cell lines (H358, H1650, H1975, and HCC4006); test: Intracellular arginine level by arginine ELISA kit; format: cell-based; conditions: all examined cell lines; IC50 concentrations and 0.1 μg/μl
Procedure: In one example embodiment, four lung adenocarcinoma cell lines (i.e. H358, H1650, H1975, and HCC4006), obtained from ATCC, are treated with PEG-BCT-100 at IC50 concentrations and 0.1 μg/μl. Internalization of PEG-BCT-100 by lung adenocarcinoma cells are assessed by immunocytochemistry using anti-PEG-antibodies. Detection is done using anti-rabbit Alexa 488 conjugated secondary antibody and visualization is performed using a fluorescent microscope. The PEG-BCT-100 treated lung adenocarcinoma cells are lysed in RIPA buffer for determination of arginine level by K7733 arginine ELISA kit from Immunodiagnostik.

[5] = test system: lung adenocarcinoma cell lines (H23, H358, HCC827, H1650, H1975, HCC2935, HCC4006, and A549); test: MTT assay on the panel of eight lung adenocarcinoma cell lines; format: cell-based; conditions: all tested cell lines; MTT assay after treatment for 72 h
Procedure: as §3

[6] = test system: H1650 lung adenocarcinoma cell line; test: MTT assay, growth inhibition of H1650 cell line; format: cell-based; conditions: 48 h and 72 h at 10 ng/μl
Procedure: as §3

[7] = test system: HCC2935 lung adenocarcinoma cell line; test: MTT assay, growth inhibition of HCC2935 cell line; format: cell-based; conditions: 72 h at 10 ng/μl only
Procedure: as §3

[8] = test system: HCC4006 lung adenocarcinoma xenografts; test: HCC4006 lung adenocarcinoma xenograft; format: in vivo, BALB/c nude mice
Procedure: In one example embodiment, ten million lung adenocarcinoma cells from cell lines H1650, H1975, and HCC4006 are engrafted subcutaneously in BALB/cnude mice (4 weeks old with body weight of 10-14 g). Body weight, clinical signs and survival times are recorded.
Two groups of the mice, with eight mice in each group, are tested. Control group (negative control) receives physiological saline and treatment group receives 20 mg/kg of PEG-BCT-100. PEG-BCT-100 is administered via intraperitoneal (IP) injection, twice weekly, until euthanization.
In one example embodiment, ten million lung adenocarcinoma cells from cell lines H1650, H1975 and HCC4006 are engrafted subcutaneously in BALB/cnude mice (4 weeks old with body weight of 10-14 g). Body weight, clinical signs and survival times are recorded.
as §2, with “the mice,” for “animals,”, “mice” for “animals”, “and” for “and a”, “intraperitoneally,” for “intravenously,”

[9] = test system: H1975 lung adenocarcinoma cell line; test: MTT assay, growth inhibition of H1975 cell line; format: cell-based; conditions: 48 h and 72 h at 0.5 ng/μl and 10 ng/μl
Procedure: as §3

[10] = test system: HCC4006 lung adenocarcinoma cell line; test: MTT assay, growth inhibition of HCC4006 cell line; format: cell-based; conditions: 48 h and 72 h at 0.5 ng/μl and 10 ng/μl
Procedure: as §3

[11] = test system: A549 lung adenocarcinoma cell line; test: MTT assay, growth inhibition of A549 cell line; format: cell-based; conditions: 48 h and 72 h at 0.5 ng/μl and 10 ng/μl
Procedure: as §3

[12] = test system: HCC827 lung adenocarcinoma cell line; test: MTT assay, growth inhibition of HCC827 cell line; format: cell-based; conditions: 48 h and 72 h at 0.5 ng/μl and 10 ng/μl
Procedure: as §3

[13] = test system: H23 lung adenocarcinoma cell line; test: MTT assay, growth inhibition of H23 cell line; format: cell-based; conditions: 48 h and 72 h at 0.5 ng/μl and 10 ng/μl
Procedure: as §3

Molecule | anti-tumour effect [1] | anti-tumour effect [2] | growth inhibition effect (cell proliferation) [3] | intracellular (cytosolic) arginine level [4] | cytotoxicity (cell viability) [5] | growth inhibition effect (cell proliferation) [6] | growth inhibition effect (cell proliferation / toxicity) [7] | tumour growth ([8]; PEG-BCT-100 20 mg/kg IP twice weekly, DFMO 2% w/v in drinking water, 20 mg/kg) | in vivo ASS1 expression (Western blot) ([8]; PEG-BCT-100 20 mg/kg vs control arm) | in vivo ODC expression (Western blot) ([8]; PEG-BCT-100 20 mg/kg vs control arm, 20 mg/kg) | growth inhibition effect (cell proliferation) [9] | growth inhibition effect (cell proliferation) [10] | growth inhibition effect (cell proliferation) [11] | growth inhibition effect (cell proliferation) [12] | growth inhibition effect (cell proliferation) [13]
NCCC[C@](N)(C(=O)O)C(F)F [DFMO, α-difluoromethylornithine, reference compound] | do not produce a significant anti-tumour effect | significant anti-tumour effect |  |  |  |  |  |  |  |  |  |  |  |  | 
PEG-BCT-100: pegylated recombinant human arginase I (SEQ ID NO.1, or SEQ ID NO.3 with six histidines), about 6-12 PEG molecules per arginase (protein, UniProt P05089 1-322, looked up, PEG, about 6-12 per arginase; optional His6 tag) Arginase-1: MSAKSRTIGIIGAPFSKGQPRGGVEEGPTVLRKAGLLEKLKEQECDVKDYGDLPFADIPNDSPFQIVKNPRSVGKASEQLAGKVAEVKKNGRISLVLGGDHSLAIGSISGHARVHPDLGVIWVDAHTDINTPLTTTSGNLHGQPVSFLLKELKGKIPDVPGFSWVTPCISAKDIVYIGLRDVDPGEHYILKTLGIKYFSMTEVDRLGIGKVMEETLSYLLGRKKRPIHLSFDVDGLDPSFTPATGTPVVGGLTYREGLYITEEIYKTGLLSGLDIMEVNPSLGKTPEEVTRTVNTAVAITLACFGLAREGNHKPIDYLNPPK | do not produce a significant anti-tumour effect | do not produce a significant anti-tumour effect | inhibits H358 lung adenocarcinoma cell line proliferation more effectively than ADI | depletes intracellular arginine significantly; also recorded: able to deplete cytosolic arginine level significantly | induces cytotoxicity in all tested lung adenocarcinoma cell lines | inhibits H1650 lung adenocarcinoma cell line proliferation more effectively than ADI | induces toxicity in HCC2935 lung adenocarcinoma cell line | suppresses tumor growth; also recorded: inhibits tumour growth | remains unchanged | remains negative; also recorded: does not show upregulation of ODC | inhibits H1975 lung adenocarcinoma cell line proliferation | inhibits HCC4006 lung adenocarcinoma cell line proliferation more effectively than ADI | inhibits A549 lung adenocarcinoma cell line proliferation more effectively than ADI | inhibits HCC827 lung adenocarcinoma cell line proliferation more effectively than ADI | inhibits H23 lung adenocarcinoma cell line proliferation more effectively than ADI
